Measured values reported in patent US20240317826A1, “COMPOSITIONS AND METHODS FOR TREATING AND/OR I[…] AGENT FOR TREATING HIV-1 INFECTIONS” (priority 2021, published 2024).

B1: S6: INI1 fragment (aa 183-294) harboring the Rpt1 domain, linker region and a part of Rpt2 (protein, UniProt Q12824 183-294, looked up, fragment)
chain: PEVLVPIRLDMEIDGQKLRDAFTWNMNEKLMTPEMFSEILCDDLDLNPLTFVPAIASAIRQQIESYPTDSILEDQSDQRVIIKLNIHVGNISLVDQFEWDMSEKENSPEKFA
B2: INI1183-304: INI1 fragment aa 183-304 (Rpt1, linker, part of Rpt2), expressed as His6-SUMO fusion (protein)
chain: PEVLVPIRLDMEIDGQKLRDAFTWNMNEKLMTPEMFSEILCDDLDLNPLTFVPAIASAIRQQIESYPTDSILEDQSDQRVIIKLNIHVGNISLVDQFEWDMSEKENSPEKFALKLCSELGLG
modifications: left off: large carriers
notes: INI1 fragment aa 183-304 (Rpt1, linker, part of Rpt2), expressed as His6-SUMO fusion

Columns and labels:
[1] = system: HIV-1 particle production; settings: by binding to IN within GagPol; cited from earlier work
[2] = molecular target: T1, IN-CTD (Human immunodeficiency virus type 1 group M subtype B, UniProt P04585); assay: Alpha proximity assay, binding of His6-SUMO-INI1183-304 to GST-CTD; set-up: species or system HIV-1
T1 construct: pGEX3x-IN and pGST-IN-CTD(aa 201-288) were used as templates; made in house; host or cells: bacteria (E. coli)
Procedure: FIG. 16A-FIG. 16H show quantitative Alpha protein-protein interaction assay to determine the interaction of IN, CTD, and the mutants with INI1 and INI1183-304. […] A titration curve was generated with increasing concentrations of His6-SUMO-INI1183-304 with two different fixed concentration of GST-CTD and the interactions were detected as Alpha Score. The KD values were determined by nonlinear regression analysis using specific binding with Hill slope analysis in GraphPad Prism. Data from one representative experiment is depicted. FIG. 16B and FIG. 16C show effect of salt on the interactions of GST-CTD either with His6-SUMO-INI1183-304 or biotinylated(Bio)-TAR RNA (n=3 independent experiments). The interaction was tested using fixed concentrations of GST-CTD (0.75 μM) and increasing concentrations of His6-SUMO-INI1183-304 (or Bio-TAR RNA) in two different NaCl conditions (100 and 500 mM). […] The IC50 values were determined by fitting the data to a four-parameter dose-response curve using GraphPad prism. […]
AlphaScreen proximity assay to detect the protein-protein and protein-RNA interactions. […] The Alpha score readings were measured using Alpha-compatible Envision 2105 multi-plate reader (Perkin-Elmer). All the experiments related to this method were carried out 3 to 5 times and data were analyzed by using Graph Pad Prism 9 version 9.0.0 (GraphPad Software, CA). […]

| Molecule | inhibition of HIV-1 particle production [1] | KD for binding, IN-CTD/INI1183-304 [2] |
| --- | --- | --- |
| B1 | trans-dominantly inhibits HIV-1 particle production | – |
| B2 | – | low nM |
